One block for each binder: values may come before it.
B2: MIOS (subunit of the recombinant GATOR2 complex) (natural protein, human)
chain: MSGTKPDILWAPHHVDRFVVCDSELSLYHVESTVNSELKAGSLRLSEDSAATLLSINSDTPYMKCVAWYLNYDPECLLAVGQANGRVVLTSLGQDHNSKFKDLIGKEFVPKHARQCNTLAWNPLDSNWLAAGLDKHRADFSVLIWDICSKYTPDIVPMEKVKLSAGETETTLLVTKPLYELGQNDACLSLCWLPRDQKLLLAGMHRNLAIFDLRNTSQKMFVNTKAVQGVTVDPYFHDRVASFYEGQVAIWDLRKFEKPVLTLTEQPKPLTKVAWCPTRTGLLATLTRDSNIIRLYDMQHTPTPIGDETEPTIIERSVQPCDNYIASFAWHPTSQNRMIVVTPNRTMSDFTVFERISLAWSPITSLMWACGRHLYECTEEENDNSLEKDIATKMRLRALSRYGLDTEQVWRNHILAGNEDPQLKSLWYTLHFMKQYTEDMDQKSPGNKGSLVYAGIKSIVKSSLGMVESSRHNWSGLDKQSDIQNLNEERILALQLCGWIKKGTDVDVGPFLNSLVQEGEWERAAAVALFNLDIRRAIQILNEGASSEKGDLNLNVVAMALSGYTDEKNSLWREMCSTLRLQLNNPYLCVMFAFLTSETGSYDGVLYENKVAVRDRVAFACKFLSDTQLNRYIEKLTNEMKEAGNLEGILLTGLTKDGVDLMESYVDRTGDVQTASYCMLQGSPLDVLKDERVQYWIENYRNLLDAWRFWHKRAEFDIHRSKLDPSSKPLAQVFVSCNFCGKSISYSCSAVPHQGRGFSQYGVSGSPTKSKVTSCPGCRKPLPRCALCLINMGTPVSSCPGGTKSDEKVDLSKDKKLAQFNNWFTWCHNCRHGGHAGHMLSWFRDHAECPVSACTCKCMQLDTTGNLVPAETVQP
notes: MIOS, subunit of human GATOR2; codon-optimized DNA in pCAG; The MIOS chain of m1, for the pairs of subunits that touch in the structure

Key:
[1] = target: B2; assay: cryo-EM structure; purified GATOR2 at 0.45 mg/ml with a threefold molar excess of CASTOR1^apo, 45 min on ice, no arginine; Titan Krios; details: both partners purified
[2] = target: the molecule itself; assay: as above
[3] = target: T1, WDR59 (subunit of the recombinant GATOR2 complex) (human, UniProt Q6PJI9 1-974); assay: as above; details: both partners purified
T1 construct: WDR59, subunit of human GATOR2; codon-optimized DNA in pCAG; The WDR59 chain of m1
T1 sequence: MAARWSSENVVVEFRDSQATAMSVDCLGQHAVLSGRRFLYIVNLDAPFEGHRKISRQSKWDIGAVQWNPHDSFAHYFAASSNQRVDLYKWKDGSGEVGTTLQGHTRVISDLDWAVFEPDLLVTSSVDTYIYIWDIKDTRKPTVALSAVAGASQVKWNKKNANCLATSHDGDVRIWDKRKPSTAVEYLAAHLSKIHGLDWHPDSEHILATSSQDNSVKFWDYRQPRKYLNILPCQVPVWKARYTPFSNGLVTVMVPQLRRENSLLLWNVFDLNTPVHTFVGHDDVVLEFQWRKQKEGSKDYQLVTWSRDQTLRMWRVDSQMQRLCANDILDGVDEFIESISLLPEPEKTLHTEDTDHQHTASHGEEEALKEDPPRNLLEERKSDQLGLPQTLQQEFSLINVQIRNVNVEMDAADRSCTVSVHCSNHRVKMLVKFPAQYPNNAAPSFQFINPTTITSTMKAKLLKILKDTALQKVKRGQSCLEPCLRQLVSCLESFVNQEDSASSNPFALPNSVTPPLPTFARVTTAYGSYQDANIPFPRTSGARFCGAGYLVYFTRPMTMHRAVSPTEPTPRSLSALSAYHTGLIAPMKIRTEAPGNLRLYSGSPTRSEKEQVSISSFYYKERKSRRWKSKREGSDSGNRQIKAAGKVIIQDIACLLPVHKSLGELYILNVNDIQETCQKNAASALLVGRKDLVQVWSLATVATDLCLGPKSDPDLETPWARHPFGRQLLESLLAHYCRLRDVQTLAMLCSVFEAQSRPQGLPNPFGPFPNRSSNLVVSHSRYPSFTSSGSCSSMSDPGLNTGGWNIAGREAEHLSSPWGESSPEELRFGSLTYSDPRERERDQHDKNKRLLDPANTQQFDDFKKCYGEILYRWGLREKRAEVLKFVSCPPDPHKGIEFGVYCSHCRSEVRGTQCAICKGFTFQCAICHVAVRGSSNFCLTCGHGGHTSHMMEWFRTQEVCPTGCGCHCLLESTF

[4] = target: T2, WDR24 (subunit of the recombinant GATOR2 complex) (human, UniProt Q96S15 1-790); assay: cryo-EM structure; purified GATOR2 at 0.45 mg/ml with threefold molar excess of CASTOR1^apo, twofold of SESN2^apo and threefold of GATOR1, 45 min on ice; Talos Arctica, 7.77 Å map; details: both partners purified
T2 construct: WDR24, subunit of human GATOR2; codon-optimized DNA in pCAG; The WDR24 chain of m1
T2 sequence: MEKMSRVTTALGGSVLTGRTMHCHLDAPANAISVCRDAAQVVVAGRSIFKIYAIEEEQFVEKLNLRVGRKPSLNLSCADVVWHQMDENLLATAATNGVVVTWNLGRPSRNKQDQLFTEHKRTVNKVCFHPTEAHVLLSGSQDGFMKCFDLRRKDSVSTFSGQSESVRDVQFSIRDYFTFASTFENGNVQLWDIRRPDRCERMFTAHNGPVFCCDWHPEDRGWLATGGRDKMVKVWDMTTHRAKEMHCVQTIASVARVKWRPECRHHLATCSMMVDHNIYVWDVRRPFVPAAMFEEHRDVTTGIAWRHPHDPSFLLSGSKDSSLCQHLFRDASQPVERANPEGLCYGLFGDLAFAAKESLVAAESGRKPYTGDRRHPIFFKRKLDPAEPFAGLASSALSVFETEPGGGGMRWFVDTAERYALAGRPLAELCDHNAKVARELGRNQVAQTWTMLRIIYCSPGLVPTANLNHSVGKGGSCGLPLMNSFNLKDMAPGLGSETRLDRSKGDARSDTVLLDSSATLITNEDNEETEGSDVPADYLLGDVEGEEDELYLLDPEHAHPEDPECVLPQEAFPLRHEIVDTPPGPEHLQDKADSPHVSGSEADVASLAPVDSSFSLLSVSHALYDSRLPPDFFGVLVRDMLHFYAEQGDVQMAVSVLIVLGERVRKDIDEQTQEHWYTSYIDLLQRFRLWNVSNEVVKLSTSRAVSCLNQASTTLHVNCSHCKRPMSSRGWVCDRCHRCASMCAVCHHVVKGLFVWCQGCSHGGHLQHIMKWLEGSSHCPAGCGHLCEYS

binding result [1]: binds
B1: CASTOR1(S111A/D304A), apo-locked mutant (natural protein)
chain: MELHILEHRVRVLSVARPGLWLYTHPLIKLLFLPRRSRCKFFSLTETPEDYTLMVDEEGFKELPPSEFLQVAEATWLVLNVSSHSGAAVQAAGVTKIARSVIAPLAEHHVAVLMLSTYQTDFILVREQDLSVVIHTLAQEFDIYREVGGEPVPVTRDDSSNGFPRTQHGPSPTVHPIQSPQNRFCVLTLDPETLPAIATTLIDVLFYSHSTPKEAASSSPEPSSITFFAFSLIEGYISIVMDAETQKKFPSDLLLTSSSGELWRMVRIGGQPLGFDECGIVAQIAGPLAAADISAYYISTFNFAHALVPEDGIGSVIEVLQRRQEGLAS
notes: CASTOR1, arginine sensor; codon-optimized DNA in pET-28a+; Homodimer in the structure; also called CASTOR1^apo; 6×His–CASTOR1^apo; source: E. coli BL21(DE3), purified (Ni-NTA, Superdex 200 gel filtration)
stoichiometry N [2]: 2

Binder: B2
binding result [3]: binds | binding result [2]: binds

binding result [4]: binds
B3: SESN2(E451Q/R390A/W444E), apo-locked mutant (natural protein, UniProt P58004 1-480, looked up)
chain: MIVADSECRAELKDYLRFAPGGVGDSGPGEEQRESRARRGPRGPSAFIPVEEVLREGAESLEQHLGLEALMSSGRVDNLAVVMGLHPDYFTSFWRLHYLLLHTDGPLASSWRHYIAIMAAARHQCSYLVGSHMAEFLQTGGDPEWLLGLHRAPEKLRKLSEINKLLAHRPWLITKEHIQALLKTGEHTWSLAELIQALVLLTHCHSLSSFVFGCGILPEGDADGSPAPQAPTPPSEQSSPPSRDPLNNSGGFESARDVEALMERMQQLQESLLRDEGTSQEEMESRFELEKSESLLVTPSADILEPSPHPDMLCFVEDPTFGYEDFTRRGAQAPPTFRAQDYTWEDHGYSLIQRLYPEGGQLLDEKFQAAYSLTYNTIAMHSGVDTSVLARAIWNYIHCVFGIRYDDYDYGEVNQLLERNLKVYIKTVACYPEKTTRRMYNLFERHFRHSQKVHVNLLLLEARMQAALLYALRAITRYMT
notes: sestrin2 (SESN2), leucine sensor; codon-optimized DNA in pET-28a+; also called SESN2^apo; 6×His–SESN2^apo; source: E. coli BL21(DE3), purified (Ni-NTA, SP cation-exchange flowthrough, Superdex 200 gel filtration)

Reference: paper PMC12477443, “Structural basis for mTORC1 regulation by the CASTOR1–GATOR2 complex” (Nature Structural & Molecular Biology, 2025)
